Consider 8 molecules from patent publication US20250084158A1 (ABL BIO, published 2025).

Assay [1] has as its target T1, human CLL-1 on cells (human, UniProt Q5QGZ9 1-265).
T1 construct: whole, on cells; Overexpressed in HEK293E cells or carried by CLL1-expressing leukemic cell lines; the cell line is named under assay or readout; also called CLEC12A; huCLL1_293E
T1 sequence (looked up): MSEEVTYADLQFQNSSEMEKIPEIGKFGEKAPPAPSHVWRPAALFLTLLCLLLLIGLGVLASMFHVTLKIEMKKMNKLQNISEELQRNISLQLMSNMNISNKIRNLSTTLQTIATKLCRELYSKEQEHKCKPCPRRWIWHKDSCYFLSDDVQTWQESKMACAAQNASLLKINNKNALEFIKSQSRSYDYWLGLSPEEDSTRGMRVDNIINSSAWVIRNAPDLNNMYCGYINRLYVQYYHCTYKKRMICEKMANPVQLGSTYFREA
Kind of assay: FACS, OCI-AML2 cells (2nd Ab only 3.28). Here is the method: (§1) To evaluate cell binding property, the chimeric antibody candidates of Example 1.2. were analyzed in CLL1 negative cells (HEK293E and Jurkat) and various CLL1 expressing cancer cells by using FACS.
(§2) Briefly, cells were incubated with antibodies at 4° C. for 1 hr. Firstly, the cells were washed with an assay buffer (1% BSA in PBS). Then, an anti-human IgG Fc conjugated with FITC (Fluorescein isothiocyanate) (Sigma, F9512) was added to each well and incubated at 4° C. for 1 hr. After wash, the MFI (Median Fluorescence Intensity) of FITC was measured by BD FACS Cal ibur (BD Biosciences).
On the technique in general: Flow cytometry measures light scatter and fluorescence of single cells or particles in a stream.

For assay [2], the target named is T1, human CLL-1 on cells. Briefly: FACS, HL60 cells (2nd Ab only 5.09). Here is the method: as §1, §2
Assay [3] deals with T1, human CLL-1 on cells. Briefly: FACS, huCLL1_293E cells (2nd Ab only 5.05). Here is the method: as §1, §2
Another assay deals with T2, hFc-Human CLL1 (human).
T2 construct: Human CLL1 with N-terminal human IgG1 Fc, made in-house; also called hFc-huCLL1
Kind of assay: ELISA, coated antigen. Here is the method:
Antibody candidates of Example 1.2. were analyzed to compare the ligand binding activity by ELISA, using huCLL1-His and hFc-huCLL1 as ligands.
(§3) Briefly, the antigen (ligand) was coated overnight at 4VC. The antigen coated plate was blocked with 1% BSA in PBS at 4VC for 2 hr and incubated with antibodies at 4° C. for 2 hrs. To find out the EC₅₀ (nM) of each antibody, 4-fold serial dilutions were prepared from an antibody solution of a concentration of 50 nM to 0.2 pM and diluted antibodies were treated to each well, and the plate was washed with 1×PBST. Then Goat anti-Human IgG F(ab′)2 cross-adsorbed secondary antibody conjugated with HRP (horseradish peroxidase) (Thermo, 31414) was added to each well and incubated at 4° C. for 1 hr. After wash, a TMB (3,3′,5,5′-tetramethylbenzidine) substrate (Sigma, T0440) was added to each well and the OD at 450 nm was measured by an ELISA plate reader.

The target in the next assay is T3, hFc-Cynomolgus CLL1 (cynomolgus).
T3 construct: Cynomolgus CLL1 with N-terminal human IgG1 Fc, made in-house
Kind of assay: ELISA, 50 and 100 ng/well coated antigen; stronger than reference 6E7. Here is the method: as §3
Continuously, antibody candidates of Example 1.2. were analyzed to compare the ligand binding activities by ELISA, using 50 ng/well and 100 ng/well of hFc-Cynomolgus CLL1 as a ligandin the same manner as described above. Genentech's anti-CLL-1 antibody 6E7 was used as a reference.

Assay [4] has as its target T1, human CLL-1 on cells. Briefly: FACS, EOL-1 cells (2nd Ab only 2.53). Here is the method:
as §1, §2

The target in assay [5] is T1, human CLL-1 on cells. Kind of assay: FACS, U937 cells (2nd Ab only 4.77). Here is the method: as §1, §2
Assay [6] concerns the target T1, human CLL-1 on cells. Briefly: FACS, PL21 cells (2nd Ab only 2.82). Here is the method: as §1, §2
Assay [7] addresses T1, human CLL-1 on cells. Kind of assay: hybridoma screening, ELISA and FACS. For orientation: An ELISA detects its analyte on a solid surface through an enzyme-linked reagent.
Assay [8] has as its target T1, human CLL-1 on cells. Briefly: cell-based or functional assay.

T3 sequence (chain, as listed by the source limits assumed): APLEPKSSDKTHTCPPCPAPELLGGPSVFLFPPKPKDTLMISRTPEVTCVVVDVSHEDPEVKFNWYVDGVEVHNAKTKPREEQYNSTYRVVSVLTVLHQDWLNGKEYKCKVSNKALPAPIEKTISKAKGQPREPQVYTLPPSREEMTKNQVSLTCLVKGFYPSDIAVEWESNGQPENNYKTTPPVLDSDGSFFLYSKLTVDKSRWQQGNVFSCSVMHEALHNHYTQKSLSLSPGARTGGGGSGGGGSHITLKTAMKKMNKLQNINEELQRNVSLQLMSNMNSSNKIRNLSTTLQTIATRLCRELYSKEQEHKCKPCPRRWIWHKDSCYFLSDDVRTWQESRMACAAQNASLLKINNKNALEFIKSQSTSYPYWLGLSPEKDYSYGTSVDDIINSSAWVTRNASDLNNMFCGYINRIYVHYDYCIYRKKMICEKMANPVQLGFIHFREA

B1: ch33C2(NA) (antibody, human IgG1, kappa, N297A, V domains shown)
VH: EVQLQQSGPELVKPGASMKISCKASGYSFTGYAMNWVKQSHGKNLEWIGLINPYNGGAMYNQKFKGKATLTVDKSTSTAYMELLSLTSEDSAVYYCARDYRYEGHLDYWGQGTTLTVSS
VL: QIVLTQSPVIMSASPGEKVTMTCSATSSVSYMHWYQQKSGTSPKRWIYDTSKLASGVPVRFSGSGSGTSYSLTISRMEAEDAATYYCQQWSSDSPTFGVGTKLELKR
notes: also called chimeric antibody of 33C2
On to B1, for which the “MFI(FL1-H)” value with human CLL-1 on cells [1] turned out to be 19.3; with human CLL-1 on cells [2], 19.1; with human CLL-1 on cells [3] it was 77.7; with human CLL-1 on cells [4], 3.6; with human CLL-1 on cells [5], 48.1; with human CLL-1 on cells [6] it was 38.8. Further, the binding result with hFc-Human CLL1 and with hFc-Cynomolgus CLL1 was “binds” throughout.

B2: 33C2 (mouse hybridoma clone) (antibody, V domains shown)
VH: EVQLQQSGPELVKPGASMKISCKASGYSFTGYAMNWVKQSHGKNLEWIGLINPYNGGAMYNQKFKGKATLTVDKSTSTAYMELLSLTSEDSAVYYCARDYRYDGHLDYWGQGTTLTVSS
VL: QIVLTQSPVIMSASPGEKVTMTCSATSSVSYMHWYQQKSGTSPKRWIYDTSKLASGVPVRFSGSGSGTSYSLTISRMEAEDAATYYCQQWSSDSPTFGVGTKLELK
notes: Mouse monoclonal antibody from a Balb/c hybridoma; also called murine 33C2
As to B2, in the assay with human CLL-1 on cells [7], the binding result is “binds”.

B3: hu33C2 (VH3/VL6 (M12)) (antibody, V domains shown)
VH: QVQLVQSGAEVKKPGASVKVSCKASGYSFTGYAMNWVRQAPGQRLEWIGLINPYNGGAMYNQKFKGRATLTVDTSASTAYMELSSLRSEDTAVYYCARDYRYEGHLDYWGQGTLVTVSS
VL: EIVLTQSPATLSLSPGERATLSCSATSSVSYMHWYQQKPGQAPRRWIYDTSKLASGIPARFSGSGSGTSYTLTISSLEPEDFAVYYCQQWSSDSPTFGQGTKLEIK
Regarding B3, the “ADCC reporter bioassay (luminescence), EC50” value (“ADCC reporter bioassay” below) with human CLL-1 on cells [8] turned out to be 0.141 nM.

B4: hu16C6 (VH1/VL1(M14)) (antibody, V domains shown)
VH: QVQLVQSGAEVKKPGASVKISCKASGYSFTGYYMHWVKQSHGQGLEWIGHVNPYNGATSFNRNFKDRASLTVDTSTSTVYMELSSLRSEDSAVYYCGRSAYGYYERHFDYWGQGTLVTVSS
VL: DIVMTQSPDSLAVSLGERATINCKASQSVDYDADSYMNWYQQKPGQPPKLLIYAASNLQSGVPDRFSGSGSGTDFTLTISSLQAEDVAVYYCQQSDRDPLTFGGGTKLEIK
As for B4, in the assay with human CLL-1 on cells [8], the “ADCC reporter bioassay” value turned out to be 0.13 nM.

B5: ch84A2 (N12S) (antibody, V domains shown)
VH: EVQLQQSGPELVKSGASVKMSCKASGYTFTSYVIHWVKQMPGQGLEWIGLFNPYNDDVNYNEKFKGKATLTSDKYSSTAYLDLSSLTSEDSAVYYCAREGVHYGRPWFGYWGQGTLVTVSA
VL: DIKMTQSPSSMSASLGERVTITCKASQDIKSYLNWFQQKPGKSPKTLIYRASRLVDGVPARFSGSESGQDYSLTISSLEFEDMGIYYCLQYDEFPLTFGAGTKLELK
Consider B5, for which the “ADCC reporter bioassay” value with human CLL-1 on cells [8] turned out to be 0.416 nM.

B6: ch84A2(NA/N12S) (antibody, human IgG1, kappa, N297A, V domains shown)
VH: EVQLQQSGPELVKSGASVKMSCKASGYTFTSYVIHWVKQMPGQGLEWIGLFNPYNDDVNYNEKFKGKATLTSDKYSSTAYLDLSSLTSEDSAVYYCAREGVHYGRPWFGYWGQGTLVTVSA
VL: DIKMTQSPSSMSASLGERVTITCKASQDIKSYLNWFQQKPGKSPKTLIYRASRLVDGVPARFSGSESGQDYSLTISSLEFEDMGIYYCLQYDEFPLTFGAGTKLELKR
notes: Chimeric, human IgG1 N297A and human kappa; also called ch84C2; chimeric antibody of 84A2
As for B6, the “MFI(FL1-H)” value with human CLL-1 on cells [1] was found to be 13; in the assay with human CLL-1 on cells [2], 14.5; with human CLL-1 on cells [3], 72.5; in the assay with human CLL-1 on cells [4], 3.36; with human CLL-1 on cells [5], 30.5; in the assay with human CLL-1 on cells [6], 27.6.

B7: 16C6 (mouse hybridoma clone) (antibody, V domains shown)
VH: EVQLQQSGPELVKPGASVKISCKASGYSFTGYYMHWVKQSHVKSLEWIGHVNPYNGATSFNRNFKDKASLTVDKSSSTAYMELHSLTSEDSAVYYCGRSADGYYERHFDYWGQGTTLTVSS
VL: DIVLTQSPASLAVSLGQRATISCKASQSVDYDGDSYMNWYQQKPGQPPKLLIYAASNLQSGIPARFSGSGSGTDFTLNIHPVEEEDAATYYCQQSDKDPLTFGAGTKLELK
notes: Mouse monoclonal antibody from a Balb/c hybridoma; also called murine 16C6
As for B7, the binding result with human CLL-1 on cells [7] was “binds”.

B8: ch16C6(NA) (antibody, human IgG1, kappa, N297A, V domains shown)
VH: EVQLQQSGPELVKPGASVKISCKASGYSFTGYYMHWVKQSHVKSLEWIGHVNPYNGATSFNRNFKDKASLTVDKSSSTAYMELHSLTSEDSAVYYCGRSAYGYYERHFDYWGQGTTLTVSS
VL: DIVLTQSPASLAVSLGQRATISCKASQSVDYDADSYMNWYQQKPGQPPKLLIYAASNLQSGIPARFSGSGSGTDFTLNIHPVEEEDAATYYCQQSDRDPLTFGAGTKLELKR
notes: also called chimeric antibody of 16C6
As for B8, the “MFI(FL1-H)” value in the assay with human CLL-1 on cells [1] amounted to 19.5; with human CLL-1 on cells [2], 18.5; with human CLL-1 on cells [3] it was 115; with human CLL-1 on cells [4], 3.73; with human CLL-1 on cells [5], 45.8; with human CLL-1 on cells [6], 38.6. The binding result with hFc-Human CLL1 and with hFc-Cynomolgus CLL1 was “binds” each time.
